T1: mouse HB-EGF (mouse, UniProt Q06186 63-148, limits assumed)
T1 sequence (looked up): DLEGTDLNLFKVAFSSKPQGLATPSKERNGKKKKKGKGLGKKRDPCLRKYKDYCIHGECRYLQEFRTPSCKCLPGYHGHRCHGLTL


Assays:
[1] = molecular target: bovine serum albumin (BSA) (bovine, UniProt P02769 25-607); assay: binding ELISA
[2] = molecular target: T2, recombinant secretory human HB-EGF manufactured by R & D System (catalogue number 259-HE/CF) (human, UniProt Q99075 63-148); assay: SPR (Biacore T-100), HB-EGF immobilized on CM5 chip, antibody in flow
T2 construct: also called recombinant human HB-EGF; secretory HB-EGF
T2 sequence (Q99075 63-148 limits assumed): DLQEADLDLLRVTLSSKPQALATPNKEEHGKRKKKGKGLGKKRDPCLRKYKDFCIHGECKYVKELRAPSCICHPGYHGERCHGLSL
Experimental: (§1) In order to analyze binding activities of a mouse antibody KM3566 and the chimeric antibody KM3966 for human HB-EGF in reaction kinetics, the binding activity measurement was carried out using Biacore. All of the following operations were carried out using Biacore T-100 (manufactured by Biacore). Human HB-EGF (manufactured by R & D) prepared into 5 μg/ml using HBS-EP Buffer (manufactured by Biacore) was immobilized onto a CM 5 sensor chip (manufactured by Biacore) to a level of 80 RU (resonance unit) by an amine coupling method. Thereafter, each antibody diluted 5-fold from 9 nmol/l was let flow on the chip at a rate of 10 μl/min, and by analyzing the sensor-gram at each concentration, the association rate constant and dissociation rate constant of each antibody for human HB-EGF were calculated.
It was confirmed based on the results that both antibodies almost the same binding activity for human HB-EGF.

[3] = molecular target: T1, mouse HB-EGF; assay: not described
[4] = molecular target: T2, recombinant secretory human HB-EGF …; assay: SPR (BIACORE T100), HB-EGF immobilized, antibody in flow
Experimental: as §1
In order to reaction-kinetically analyze binding activity of the anti-HB-EGF humanized antibodies for human HB-EGF, it was measured in the same manner as in Example 7(2) using BIACORE T100 (manufactured by BIACORE).
As a result, human HB-EGF binding activity of the anti-HB-EGF humanized antibody HV0LV0 in which the CDRs of anti-HB-EGF chimeric antibody KM3966 were simply transplanted into human framework was reduced close to about ½ of that of the anti-HB-EGF chimeric antibody KM3966, but the binding activity of the anti-HB-EGF humanized antibody HV7LV0 in which amino acid modification was added to the H chain alone and the anti-HB-EGF humanized antibody HV7LV5 in which amino acid modification was added to the H chain and L chain was increased to almost the same level of the anti-HB-EGF chimeric antibody KM3966.

[5] = molecular target: T2, recombinant secretory human HB-EGF …; assay: SPR (BIACORE T100), HB-EGF immobilized
Experimental: as §1
In order to reaction-kinetically analyze binding activity of the anti-HB-EGF humanized antibodies for human HB-EGF, it was measured in the same manner as in Example 7(2) using BIACORE T100 (manufactured by BIACORE). […]

bovine serum albumin (BSA), sequence (P02769 25-607 limits assumed): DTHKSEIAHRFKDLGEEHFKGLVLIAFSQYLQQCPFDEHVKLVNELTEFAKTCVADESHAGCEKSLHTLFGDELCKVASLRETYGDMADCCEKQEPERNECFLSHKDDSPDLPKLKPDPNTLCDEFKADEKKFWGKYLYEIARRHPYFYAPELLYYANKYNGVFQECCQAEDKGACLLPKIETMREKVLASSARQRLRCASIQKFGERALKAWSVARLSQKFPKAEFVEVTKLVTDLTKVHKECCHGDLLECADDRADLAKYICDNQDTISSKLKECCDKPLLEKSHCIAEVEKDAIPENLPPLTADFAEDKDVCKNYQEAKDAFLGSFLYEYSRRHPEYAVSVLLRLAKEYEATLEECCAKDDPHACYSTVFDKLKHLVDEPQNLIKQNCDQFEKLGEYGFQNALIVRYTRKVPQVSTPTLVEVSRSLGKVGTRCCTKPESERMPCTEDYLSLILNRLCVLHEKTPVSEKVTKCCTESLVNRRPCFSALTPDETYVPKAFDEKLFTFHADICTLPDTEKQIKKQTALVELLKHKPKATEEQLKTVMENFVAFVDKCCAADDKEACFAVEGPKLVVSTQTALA

Binder	binding result [1]	kon [2] [M⁻¹ s⁻¹]	binding result [3]	kon [4] [M⁻¹ s⁻¹]	human HB-EGF binding activity relative to KM3966 [5]
anti-HB-EGF monoclonal antibody KM3566 (antibody, V domains shown, also called anti-HB-EGF mouse antibody KM3566; monoclonal antibody produced by hybridoma KM3566 (FERM BP-10490)) VH: QVQLQQSGTELARPGASVKLSCKASGYTFRTYGITWVKQRTGQGLEWIGEIFPGSGNTYYNEKFKGKASLTADKSSSTAYMQLSSLTSEDSAVYFCARESFSDGYYGYFDYWGQGTTLTVSS VL: not shown	no binding (tested: diluted stepwise from 10 µg/ml)	270000	no binding	–	–
anti-HB-EGF chimeric antibody KM3966 (antibody, V domains shown, Human chimeric IgG class antibody made with the vector pKANTEX93 (WO 97/10354); also called human chimeric antibody KM3966; anti-HB-EGF monoclonal antibody KM3966) VH: QVQLQQSGTELARPGASVKLSCKASGYTFRTYGITWVKQRTGQGLEWIGEIFPGSGNTYYNEKFKGKASLTADKSSSTAYMQLSSLTSEDSAVYFCARESFSDGYYGYFDYWGQGTTLTVSS VL: not shown	–	240000	no binding	187000	–
anti-HB-EGF humanized antibody HV7LV0 (antibody, V domains shown, Whole humanized antibody from pKANTEX93) VH: QVQLVQSGAEVKKPGASVKLSCKASGYTFRTYGITWVRQAPGQGLEWIGEIFPGSGNTYYNEKFKGRATLTADKSTSTAYMELSSLRSEDTAVYFCARESFSDGYYGYFDYWGQGTLLTVSS VL: DIVMTQSPDSLAVSLGERATINCKSSQSLLYSTNQKNSLAWYQQKPGQPPKLLIYWASTRESGVPDRFSGSGSGTDFTLTISSLQAEDVAVYYCQQYYRYPLTFGQGTKLEIK	–	–	–	174000	–
anti-HB-EGF humanized antibody HV0LV0 (antibody, V domains shown, Whole humanized antibody expressed from pKANTEX93) VH: QVQLVQSGAEVKKPGASVKVSCKASGYTFTTYGITWVRQAPGQGLEWMGEIFPGSGNTYYNEKFKGRVTITADKSTSTAYMELSSLRSEDTAVYYCARESFSDGYYGYFDYWGQGTLVTVSS VL: DIVMTQSPDSLAVSLGERATINCKSSQSLLYSTNQKNSLAWYQQKPGQPPKLLIYWASTRESGVPDRFSGSGSGTDFTLTISSLQAEDVAVYYCQQYYRYPLTFGQGTKLEIK	–	–	–	104000	~0.5 fold of KM3966
anti-HB-EGF humanized antibody HV7LV5 (antibody, V domains shown, Whole humanized antibody from pKANTEX93) VH: QVQLVQSGAEVKKPGASVKLSCKASGYTFRTYGITWVRQAPGQGLEWIGEIFPGSGNTYYNEKFKGRATLTADKSTSTAYMELSSLRSEDTAVYFCARESFSDGYYGYFDYWGQGTLLTVSS VL: DIVMTQSPDSLAVSVGERVTMNCKSSQSLLYSTNQKNSLAWYQQKPGQSPKLLIYWASTRESGVPDRFSGSGSGTDFTLTISSVQAEDVAVYYCQQYYRYPLTFGQGTKLEIK	–	–	–	170000	–
